No end group written: not given here. *: point of attachment. Biotin = O=C1N[C@H]2[C@H](CS[C@H]2CCCCC(=O)*)N1
Biological target: T1, RIM2 d1 (Homo sapiens, UniProt Q9UQ26)
T1 construct: made in house; host or cells: E. coli (DH5α, BL21 or JM109)
T1 sequence (Q9UQ26 632-757): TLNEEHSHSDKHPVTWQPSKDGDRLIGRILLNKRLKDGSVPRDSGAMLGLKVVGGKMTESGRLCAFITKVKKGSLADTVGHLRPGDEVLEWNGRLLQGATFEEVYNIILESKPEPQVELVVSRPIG
Assay: G assays, titrations or binding assays of peptides
Settings: peptide demonstrated to bind RIM2 d1 in G assays

| Sequence | POZ domain bound |
| --- | --- |
| DFRPSFKHILFRRARRGFRQ (Biotin-DFRPSFKHILFRRARRGFRQ) | RIM2 D1 |
| HHLVAQRDIRQFQLQHWLAI (Biotin-HHLVAQRDIRQFQLQHWLAI) | RIM2 D1 |
| LAVLAYSITLVMLWSIWQYA (Biotin-LAVLAYSITLVMLWSIWQYA) | RIM2 D1 |
| RELVDRGEVRQFTLRHWLKV (Biotin-RELVDRGEVRQFTLRHWLKV) | RIM2 D1 |
| QDFRRAFRRILARPWTQTAW (Biotin-QDFRRAFRRILARPWTQTAW) | RIM2 D1 |
| KKKKQPGNSTKESESTNSVRLML (Biotin-KKKKQPGNSTKESESTNSVRLML) | RIM2 D1 |
| SSKSKSSEESQTFFGLYKL (Biotin-SSKSKSSEESQTFFGLYKL) | RIM2 D1 |
| VHKVRNKFKAKCSLCRLYII (Biotin-VHKVRNKFKAKCSLCRLYII; cysteine pairing not given here) | RIM2 D1 |
| YGRKKRRQRRRNDNIALLVQ | RIM2 D1 |
| HDFRRAFKKILARGDRKRIV (Biotin-HDFRRAFKKILARGDRKRIV) | RIM2 D1 |

Biological target: T2, Syntrophin 1 alpha d1 (Homo sapiens, UniProt Q13424)
T2 construct: made in house; host or cells: E. coli (DH5α, BL21 or JM109)
T2 sequence (Q13424 84-177): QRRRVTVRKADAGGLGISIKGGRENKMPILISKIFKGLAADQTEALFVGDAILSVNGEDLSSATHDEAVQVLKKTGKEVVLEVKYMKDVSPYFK
Assay: G assays, titrations or binding assays of peptides
Settings: peptide demonstrated to bind syntrophin 1 alpha d1 in G assays
Procedure: In one aspect, the invention provides an assay in which a GST/PDZ fusion protein is immobilized on a surface (G assay). The binding of labeled PL peptide (e.g., as listed in TABLE 2 and TABLE 4) to this surface is then measured. In a preferred embodiment, the assay is carried out as follows:
(1) A PDZ-domain polypeptide is bound to a surface, e.g. a protein binding surface. In a preferred embodiment, a GST/PDZ fusion protein containing one or more PDZ domains is bound to a polystyrene 96-well plate. […] In one embodiment, the GST/PDZ fusion protein is bound via an anti-GST antibody that is coated onto the 96-well plate. Adequate binding to the plate can be achieved when: • a. 100 μl per well of 5 μg/ml goat anti-GST polyclonal antibody (Pierce) in PBS is added to a polystyrene 96-well plate (e.g., Nunc Polysorp) at 4° C. for 12 hours. • b. The plate is blocked by addition of 200 μl per well of PBS/BSA for 2 hours at 4° C. • c. The plate is washed 3 times with PBS. • d. 50 μl per well of 5 μg/ml GST/PDZ fusion protein) or, as a negative control, GST polypeptide alone (i.e. not a fusion protein) in PBS/BSA is added to the plate for 2 hours at 4° C. • e. the plate is again washed 3 times with PBS.
(2) Biotinylated PL peptides are allowed to react with the surface by addition of 50 μl per well of 20 μM solution of the biotinylated peptide in PBS/BSA for 10 minutes at 4° C., followed by an additional 20 minute incubation at 25° C. The plate is washed 3 times with ice cold PBS.
(3) The binding of the biotinylated peptide to the GST/PDZ fusion protein surface can be detected using a variety of methods and detectors known to one of skill in the art. In one embodiment, 100 μl per well of 0.5 μg/ml streptavidin-horseradish peroxidase (HRP) conjugate dissolved in BSA/PBS is added and allowed to react for 20 minutes at 4° C. The plate is then washed 5 times with 50 mM Tris pH 8.0 containing 0.2% Tween 20, and developed by addition of 100 μl per well of HRP-substrate solution (TMB, Dako) for 20 minutes at room temperature (RT). The reaction of the HRP and its substrate is terminated by addition of 100 μl per well of 1 M sulfuric acid, and the optical density (O.D.) of each well of the plate is read at […].
(4) Specific binding of a PL peptide and a PDZ domain polypeptide is determined by comparing the signal from the well(s) in which the PL peptide and PDZ domain polypeptide are combined, with the background signal(s). The background signal is the signal found in the negative control(s). Typically a specific or selective reaction will be at least twice background signal, more typically more than 5 times background, and most typically 10 or more times the background signal. In addition, a statistically significant reaction will involve multiple measurements of the reaction with the signal and the background differing by at least two standard errors, more typically four standard errors, and most typically six or more standard errors. Correspondingly, a statistical test (e.g. a T-test) comparing repeated measurements of the signal with repeated measurements of the background will result in a p-value <0.05, more typically a p-value <0.01, and most typically a p-value <0.001 or less. As noted, in an embodiment of the G assay, the signal from binding of a given PL peptide to immobilized (surface bound) GST polypeptide alone is one suitable negative control (sometimes referred to as B1). Because all measurement are done in multiples (i.e. at least duplicate) the arithmetic mean (or, equivalently, average.) of several measurements is used in determining the binding, and the standard error of the mean is used in determining the probable error in the measurement of the binding. The standard error of the mean of N measurements equals the square root of the following: the sum of the squares of the difference between each measurement and the mean, divided by the product of (N) and (N−1). […]

| Sequence | POZ domain bound |
| --- | --- |
| DFRPSFKHILFRRARRGFRQ (Biotin-DFRPSFKHILFRRARRGFRQ) | Syntrophin 1 alpha D1 |
| GRWTGRAMSAWKPTRRETEV (Biotin-GRWTGRAMSAWKPTRRETEV) | Syntrophin 1 alpha D1 |
| YGRKKRRQRRRKLSSIESDV (Biotin-YGRKKRRQRRRKLSSIESDV) | Syntrophin 1 alpha D1 |
| HHLVAQRDIRQFQLQHWLAI (Biotin-HHLVAQRDIRQFQLQHWLAI) | Syntrophin 1 alpha D1 |
| HSCCNRARQERLQRRRETQV (Biotin-HSCCNRARQERLQRRRETQV; cysteine pairing not given here) | Syntrophin 1 alpha D1 |
| LAVLAYSITLVMLWSIWQYA (Biotin-LAVLAYSITLVMLWSIWQYA) | Syntrophin 1 alpha D1 |
| RELVDRGEVRQFTLRHWLKV (Biotin-RELVDRGEVRQFTLRHWLKV) | Syntrophin 1 alpha D1 |
| QDFRRAFRRILARPWTQTAW (Biotin-QDFRRAFRRILARPWTQTAW) | Syntrophin 1 alpha D1 |
| KKKKQPGNSTKESESTNSVRLML (Biotin-KKKKQPGNSTKESESTNSVRLML) | Syntrophin 1 alpha D1 |
| SSKSKSSEESQTFFGLYKL (Biotin-SSKSKSSEESQTFFGLYKL) | Syntrophin 1 alpha D1 |
| VHKVRNKFKAKCSLCRLYII (Biotin-VHKVRNKFKAKCSLCRLYII; cysteine pairing not given here) | Syntrophin 1 alpha D1 |
| YGRKKRRQRRRNDNIALLVQ | Syntrophin 1 alpha D1 |
| HDFRRAFKKILARGDRKRIV (Biotin-HDFRRAFKKILARGDRKRIV) | Syntrophin 1 alpha D1 |

Biological target: T3, PAR3 d3 (Homo sapiens, UniProt Q8TEW0, R682S)
T3 construct: made in house; host or cells: E. coli (DH5α, BL21 or JM109)
T3 sequence (Q8TEW0 with tags, fused parts or gaps R682S): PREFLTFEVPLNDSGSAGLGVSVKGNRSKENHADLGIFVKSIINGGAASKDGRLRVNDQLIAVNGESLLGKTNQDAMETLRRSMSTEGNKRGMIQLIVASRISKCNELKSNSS
Assay: G assays, titrations or binding assays of peptides
Settings: peptide demonstrated to bind PAR3 d3 in G assays
Procedure: (§1) In one aspect, the invention provides an assay in which a GST/PDZ fusion protein is immobilized on a surface (G assay). […] In a preferred embodiment, the assay is carried out as follows:
(§2) (3) The binding of the biotinylated peptide to the GST/PDZ fusion protein surface can be detected using a variety of methods and detectors known to one of skill in the art. In one embodiment, 100 μl per well of 0.5 μg/ml streptavidin-horseradish peroxidase (HRP) conjugate dissolved in BSA/PBS is added and allowed to react for 20 minutes at 4° C. The plate is then washed 5 times with 50 mM Tris pH 8.0 containing 0.2% Tween 20, and developed by addition of 100 μl per well of HRP-substrate solution (TMB, Dako) for 20 minutes at room temperature (RT). The reaction of the HRP and its substrate is terminated by addition of 100 μl per well of 1 M sulfuric acid, and the optical density (O.D.) of each well of the plate is read at 450 um.
(§3) (4) Specific binding of a PL peptide and a PDZ domain polypeptide is determined by comparing the signal from the well(s) in which the PL peptide and PDZ domain polypeptide are combined, with the background signal(s). […] Typically a specific or selective reaction will be at least twice background signal, more typically more than 5 times background, and most typically 10 or more times the background signal. […] Correspondingly, a statistical test (e.g. a T-test) comparing repeated measurements of the signal with repeated measurements of the background will result in a p-value <0.05, more typically a p-value <0.01, and most typically a p-value <0.001 or less. As noted, in an embodiment of the G assay, the signal from binding of a given PL peptide to immobilized (surface bound) GST polypeptide alone is one suitable negative control (sometimes referred to as B1). Because all measurement are done in multiples (i.e. at least duplicate) the arithmetic mean (or, equivalently, average.) of several measurements is used in determining the binding, and the standard error of the mean is used in determining the probable error in the measurement of the binding. The standard error of the mean of N measurements equals the square root of the following: the sum of the squares of the difference between each measurement and the mean, divided by the product of (N) and (N−1). Thus, in one embodiment, specific binding of the PDZ protein to the platebound peptide is determined by comparing the mean signal (“mean S”) and standard error of the signal (“SE”) for a particular PL-PDZ combination with the mean B1.

| Sequence | POZ domain bound |
| --- | --- |
| DFRPSFKHILFRRARRGFRQ (Biotin-DFRPSFKHILFRRARRGFRQ) | PAR3 D3 |
| YGRKKRRQRRRKLSSIESDV (Biotin-YGRKKRRQRRRKLSSIESDV) | PAR3 D3 |
| HHLVAQRDIRQFQLQHWLAI (Biotin-HHLVAQRDIRQFQLQHWLAI) | PAR3 D3 |
| HSCCNRARQERLQRRRETQV (Biotin-HSCCNRARQERLQRRRETQV; cysteine pairing not given here) | PAR3 D3 |
| LAVLAYSITLVMLWSIWQYA (Biotin-LAVLAYSITLVMLWSIWQYA) | PAR3 D3 |
| RELVDRGEVRQFTLRHWLKV (Biotin-RELVDRGEVRQFTLRHWLKV) | PAR3 D3 |
| QDFRRAFRRILARPWTQTAW (Biotin-QDFRRAFRRILARPWTQTAW) | PAR3 D3 |
| KKKKQPGNSTKESESTNSVRLML (Biotin-KKKKQPGNSTKESESTNSVRLML) | PAR3 D3 |
| SSKSKSSEESQTFFGLYKL (Biotin-SSKSKSSEESQTFFGLYKL) | PAR3 D3 |
| VHKVRNKFKAKCSLCRLYII (Biotin-VHKVRNKFKAKCSLCRLYII; cysteine pairing not given here) | PAR3 D3 |
| YGRKKRRQRRRNDNIALLVQ | PAR3 D3 |
| HDFRRAFKKILARGDRKRIV (Biotin-HDFRRAFKKILARGDRKRIV) | PAR3 D3 |

Biological target: T4, INADL d3 (Homo sapiens, UniProt Q8NI35)
T4 construct: made in house; host or cells: E. coli (DH5α, BL21 or JM109)
T4 sequence (Q8NI35 with tags, fused parts or gaps): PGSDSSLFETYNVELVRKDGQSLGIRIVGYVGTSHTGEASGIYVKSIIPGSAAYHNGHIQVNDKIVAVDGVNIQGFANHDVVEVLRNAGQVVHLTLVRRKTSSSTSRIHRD
Assay: G assays, titrations or binding assays of peptides
Settings: peptide demonstrated to bind INADL d3 in G assays
Procedure: as §1, §2, §3

| Sequence | POZ domain bound |
| --- | --- |
| DFRPSFKHILFRRARRGFRQ (Biotin-DFRPSFKHILFRRARRGFRQ) | INADL D3 |
| GRWTGRAMSAWKPTRRETEV (Biotin-GRWTGRAMSAWKPTRRETEV) | INADL D3 |
| HHLVAQRDIRQFQLQHWLAI (Biotin-HHLVAQRDIRQFQLQHWLAI) | INADL D3 |
| HSCCNRARQERLQRRRETQV (Biotin-HSCCNRARQERLQRRRETQV; cysteine pairing not given here) | INADL D3 |
| LAVLAYSITLVMLWSIWQYA (Biotin-LAVLAYSITLVMLWSIWQYA) | INADL D3 |
| RELVDRGEVRQFTLRHWLKV (Biotin-RELVDRGEVRQFTLRHWLKV) | INADL D3 |
| QDFRRAFRRILARPWTQTAW (Biotin-QDFRRAFRRILARPWTQTAW) | INADL D3 |
| KKKKQPGNSTKESESTNSVRLML (Biotin-KKKKQPGNSTKESESTNSVRLML) | INADL D3 |
| SSKSKSSEESQTFFGLYKL (Biotin-SSKSKSSEESQTFFGLYKL) | INADL D3 |
| VHKVRNKFKAKCSLCRLYII (Biotin-VHKVRNKFKAKCSLCRLYII; cysteine pairing not given here) | INADL D3 |
| HDFRRAFKKILARGDRKRIV (Biotin-HDFRRAFKKILARGDRKRIV) | INADL D3 |

Biological target: T5, ZO-1 d2 (Homo sapiens, UniProt Q07157, DEL264-264)
T5 construct: made in house; host or cells: E. coli (DH5α, BL21 or JM109)
T5 sequence (Q07157 with tags, fused parts or gaps DEL264-264): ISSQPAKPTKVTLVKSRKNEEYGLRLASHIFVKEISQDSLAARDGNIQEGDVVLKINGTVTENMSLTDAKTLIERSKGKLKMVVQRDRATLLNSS
Assay: G assays, titrations or binding assays of peptides
Settings: peptide demonstrated to bind ZO-1 d2 in G assays
Procedure: as §1, §2, §3

| Sequence | POZ domain bound |
| --- | --- |
| DFRPSFKHILFRRARRGFRQ (Biotin-DFRPSFKHILFRRARRGFRQ) | ZO-1 D2 |
| YGRKKRRQRRRKLSSIESDV (Biotin-YGRKKRRQRRRKLSSIESDV) | ZO-1 D2 |
| HHLVAQRDIRQFQLQHWLAI (Biotin-HHLVAQRDIRQFQLQHWLAI) | ZO-1 D2 |
| HSCCNRARQERLQRRRETQV (Biotin-HSCCNRARQERLQRRRETQV; cysteine pairing not given here) | ZO-1 D2 |
| LAVLAYSITLVMLWSIWQYA (Biotin-LAVLAYSITLVMLWSIWQYA) | ZO-1 D2 |
| RELVDRGEVRQFTLRHWLKV (Biotin-RELVDRGEVRQFTLRHWLKV) | ZO-1 D2 |
| QDFRRAFRRILARPWTQTAW (Biotin-QDFRRAFRRILARPWTQTAW) | ZO-1 D2 |
| KKKKQPGNSTKESESTNSVRLML (Biotin-KKKKQPGNSTKESESTNSVRLML) | ZO-1 D2 |
| SSKSKSSEESQTFFGLYKL (Biotin-SSKSKSSEESQTFFGLYKL) | ZO-1 D2 |
| VHKVRNKFKAKCSLCRLYII (Biotin-VHKVRNKFKAKCSLCRLYII; cysteine pairing not given here) | ZO-1 D2 |
| YGRKKRRQRRRNDNIALLVQ | ZO-1 D2 |
| HDFRRAFKKILARGDRKRIV (Biotin-HDFRRAFKKILARGDRKRIV) | ZO-1 D2 |

— US7858322B2, “Method of determining inhibition of binding to TRPM7 protein” (NoNo, Inc., priority 2003, dated 2010)
